Holding throughout (assay): EMSA; ~2.5 ug protein, 0.9 pmol probe in 20 uL; 5 mM HEPES-KOH pH 7.6, 30 mM NaCl, 0.2 mM DTT, 0.02 mM EDTA, 0.8 ug salmon sperm DNA, 0.2 ug poly(dI-dC); room temperature 15 min; 4% native PAGE, 0.5x TBE (printed 0.5% w/v), 5% glycerol, pH 8.3, 4 C
Holding throughout (settings): protein: recombinant; tags: N-terminal MBP (pMAL-c2x); chain copies: 2; label: 3'-biotin; blunt

The target in data set [1] is AcNAC4 DNA-binding domain (Actinidia chinensis, UniProt A0A075ECR2 1-182).
The target of data set [2] is AcNAC2 DNA-binding domain (Actinidia chinensis, UniProt A0A075EAR8 1-182).
The target in data set [3] is AcNAC1 DNA-binding domain (Actinidia chinensis, UniProt A0A075EB52 1-182).
Data set [4] concerns the target AcNAC3 DNA-binding domain (Actinidia chinensis, UniProt A0A075EC91 1-182).

Two molecules from paper PMC8425125, “Regulation of wound ethylene biosynthesis by NAC transcription factors in kiwifruit” can be followed below.

Chain of AcNAC3 DNA-binding domain (A0A075EC91 entry or part of it): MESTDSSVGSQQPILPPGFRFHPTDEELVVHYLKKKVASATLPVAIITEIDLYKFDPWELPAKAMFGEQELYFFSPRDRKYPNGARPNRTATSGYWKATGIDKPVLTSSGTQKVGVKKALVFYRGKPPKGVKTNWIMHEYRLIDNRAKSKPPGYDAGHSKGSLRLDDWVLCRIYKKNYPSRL
Chain of AcNAC1 DNA-binding domain (A0A075EB52 entry or part of it): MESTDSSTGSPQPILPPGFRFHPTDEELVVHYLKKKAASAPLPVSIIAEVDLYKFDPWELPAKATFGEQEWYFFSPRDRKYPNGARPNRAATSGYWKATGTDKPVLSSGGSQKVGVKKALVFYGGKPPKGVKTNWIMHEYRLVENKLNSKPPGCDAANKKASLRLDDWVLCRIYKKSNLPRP
Chain of AcNAC2 DNA-binding domain (A0A075EAR8 entry or part of it): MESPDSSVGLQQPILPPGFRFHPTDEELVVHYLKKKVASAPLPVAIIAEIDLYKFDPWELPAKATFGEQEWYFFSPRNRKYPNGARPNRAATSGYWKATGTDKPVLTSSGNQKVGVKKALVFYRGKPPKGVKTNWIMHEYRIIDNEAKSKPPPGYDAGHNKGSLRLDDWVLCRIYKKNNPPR
Chain of AcNAC4 DNA-binding domain (A0A075ECR2 entry or part of it): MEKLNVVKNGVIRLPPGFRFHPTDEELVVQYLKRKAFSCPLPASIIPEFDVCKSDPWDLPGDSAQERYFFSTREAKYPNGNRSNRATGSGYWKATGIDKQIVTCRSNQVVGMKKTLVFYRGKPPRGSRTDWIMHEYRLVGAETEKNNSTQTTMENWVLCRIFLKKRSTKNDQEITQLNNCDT

B1: AcACS1 probe N1 (Wt) (dsDNA)
DNA 1: CATTATACGTATAGTCAACCACATAAC
DNA 2: GTTATGTGGTTGACTATACGTATAATG
Turning to B1, the binding result in data set [1], in data set [2], in data set [3] and in data set [4] was “binds” each time.

B2: AcACS1 probe N1MUT (Mut) (dsDNA)
DNA 1: CATCGATCCATCTGTCAACCACATAAC
DNA 2: GTTATGTGGTTGACAGATGGATCGATG
Take B2: the binding result in data set [1], in data set [2], in data set [3] and in data set [4] was “no binding” each time.
